Experiments:
[1] = target: KIR on patient NK cells (KIR2D receptors; KIR2DL1 and KIR2DL2/3); assay: receptor occupancy on patient NK cells by flow cytometry after a single i.v. dose of 0.003 mg/kg (AML dose-escalation trial)
[2] = target: KIR on patient NK cells (KIR2D receptors; KIR2DL1 and KIR2DL2/3); assay: receptor occupancy on patient NK cells by flow cytometry after a single i.v. dose of 0.0003 mg/kg (AML dose-escalation trial)

## anti-KIR antibody 1-7F9
[1]
  KIR occupancy: 90%
[2]
  KIR occupancy: 50%

Source: patent publication US20130251711A1
